In the supplement of paper PMC9112550, “Optimization of the antimicrobial peptide Bac7 by deep mutational scanning” (BMC Biology, 2022):

The sequences below were run on Escherichia coli TOP10 (assay: shrunken log2 fold change of peptide-encoding DNA abundance (4.5 h post-induction vs induction); higher = less antimicrobial activity (less host growth inhibition)). Conditions: time post-induction: 4.5 h; library: site-saturation at positions 5, 18, 19, 20.
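Note: peptides expressed intracellularly from a pBAD plasmid library in pooled LB shake-flask culture, induced with 0.3% L-arabinose, DNA abundance read by NGS, three biological replicates, DESeq2 with apeglm shrinkage.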

Sequence	shrunken log2 fold change
RRIRDRPPRLPRPRPRPENHPRP	-0.0926
RRIRARPPRLPRPRPRPPSGPRP	0.597
RRIRSRPPRLPRPRPRPDYVPRP	0.063
RRIRHRPPRLPRPRPRPMNSPRP	-0.214
RRIRFRPPRLPRPRPRPVQLPRP	-0.189
RRIRVRPPRLPRPRPRPDGFPRP	-0.0085
RRIRHRPPRLPRPRPRPPYIPRP	-0.175
RRIRTRPPRLPRPRPRPQRVPRP	-0.0793
RRIRYRPPRLPRPRPRPHKSPRP	-0.526
RRIRYRPPRLPRPRPRPHNTPRP	-1.28
RRIRFRPPRLPRPRPRPGAKPRP	0.118
RRIRQRPPRLPRPRPRPTTPPRP	0.402
RRIRVRPPRLPRPRPRPYSKPRP	0.12
RRIRIRPPRLPRPRPRPGCTPRP	-0.268
RRIRPRPPRLPRPRPRPSNRPRP	-0.783
RRIRTRPPRLPRPRPRPNHCPRP	-0.479
RRIRARPPRLPRPRPRPHSTPRP	0.0355
RRIRTRPPRLPRPRPRPYWHPRP	-0.4
RRIRGRPPRLPRPRPRPMFYPRP	1.07
RRIRCRPPRLPRPRPRPGPKPRP	0.3
RRIRTRPPRLPRPRPRPWMVPRP	-0.208
RRIRWRPPRLPRPRPRPCRCPRP	-0.0961
RRIRERPPRLPRPRPRPIFTPRP	-0.195

Sequence	shrunken log2 fold change
RRIRQRPPRLPRPRPRPPHHPRP	0.972
RRIRIRPPRLPRPRPRPCRKPRP	-0.0747
RRIRERPPRLPRPRPRPRKPPRP	-0.13
RRIRLRPPRLPRPRPRPNYFPRP	-0.121
RRIRDRPPRLPRPRPRPANFPRP	0.0245
RRIRGRPPRLPRPRPRPTINPRP	0.477
RRIRMRPPRLPRPRPRPKPDPRP	1.13
RRIRIRPPRLPRPRPRPTPRPRP	0.466
RRIRIRPPRLPRPRPRPCGDPRP	-0.0271
RRIRVRPPRLPRPRPRPIVGPRP	0.0676
RRIRIRPPRLPRPRPRPTKAPRP	-0.162
RRIRDRPPRLPRPRPRPMTHPRP	0.0105
RRIRNRPPRLPRPRPRPWGSPRP	-0.275
RRIRQRPPRLPRPRPRPDLAPRP	-0.0142
RRIRDRPPRLPRPRPRPRWIPRP	-0.376
RRIRVRPPRLPRPRPRPTWPPRP	0.446
RRIRPRPPRLPRPRPRPHVVPRP	-0.136
RRIRCRPPRLPRPRPRPTHHPRP	0.126
RRIRQRPPRLPRPRPRPRKWPRP	0.832
RRIRIRPPRLPRPRPRPRNCPRP	-0.271
RRIRWRPPRLPRPRPRPDRKPRP	-0.0752
RRIRERPPRLPRPRPRPVHPPRP	-0.00739
RRIRNRPPRLPRPRPRPKKSPRP	0.129

Sequence	shrunken log2 fold change
RRIRQRPPRLPRPRPRPVYFPRP	-0.446
RRIRNRPPRLPRPRPRPWVQPRP	0.00853
RRIRFRPPRLPRPRPRPYRMPRP	-0.571
RRIRCRPPRLPRPRPRPVNGPRP	1.74
RRIRARPPRLPRPRPRPAEPPRP	0.443
RRIRIRPPRLPRPRPRPGVVPRP	-0.47
RRIRGRPPRLPRPRPRPITKPRP	-0.0602
RRIRNRPPRLPRPRPRPERWPRP	0.699
RRIRLRPPRLPRPRPRPDVEPRP	-0.0825
RRIRLRPPRLPRPRPRPQLCPRP	0.118
RRIRPRPPRLPRPRPRPIHTPRP	-0.177
RRIRTRPPRLPRPRPRPDDFPRP	0.0516
RRIRRRPPRLPRPRPRPTGEPRP	0.337
RRIRKRPPRLPRPRPRPFVDPRP	-0.0489
RRIRTRPPRLPRPRPRPPMWPRP	0.0903
RRIRHRPPRLPRPRPRPKYRPRP	-0.138
RRIRKRPPRLPRPRPRPVIWPRP	0.153
RRIRPRPPRLPRPRPRPEHWPRP	0.226
RRIRWRPPRLPRPRPRPMWQPRP	0.016
RRIRYRPPRLPRPRPRPWYHPRP	-0.0547
RRIRIRPPRLPRPRPRPHVSPRP	-0.0557
RRIRNRPPRLPRPRPRPSLHPRP	-0.621
RRIRSRPPRLPRPRPRPPLQPRP	0.504

Sequence	shrunken log2 fold change
RRIRRRPPRLPRPRPRPSRQPRP	0.352
RRIRPRPPRLPRPRPRPAEFPRP	-0.0142
RRIRVRPPRLPRPRPRPLIAPRP	-0.0308
RRIRVRPPRLPRPRPRPGRYPRP	0.303
RRIRCRPPRLPRPRPRPGVGPRP	0.455
RRIRRRPPRLPRPRPRPPIGPRP	-0.149
RRIRMRPPRLPRPRPRPKIHPRP	-0.0387
RRIRRRPPRLPRPRPRPGGQPRP	0.175
RRIRRRPPRLPRPRPRPCNEPRP	-0.0323
RRIRRRPPRLPRPRPRPRLIPRP	0.874
RRIRLRPPRLPRPRPRPPRNPRP	0.356
RRIRFRPPRLPRPRPRPGQNPRP	0.0186
RRIRFRPPRLPRPRPRPRFVPRP	0.181
RRIRWRPPRLPRPRPRPQNHPRP	-0.585
RRIRKRPPRLPRPRPRPMPIPRP	0.0778
RRIRIRPPRLPRPRPRPDPTPRP	-0.0575
RRIRHRPPRLPRPRPRPAFPPRP	0.46
RRIRSRPPRLPRPRPRPTRNPRP	0.29
RRIRMRPPRLPRPRPRPAWGPRP	0.81
RRIRIRPPRLPRPRPRPRYYPRP	-0.372
RRIRWRPPRLPRPRPRPWPWPRP	-0.0737
RRIRQRPPRLPRPRPRPARGPRP	0.126
